Experimental data: patent publication US20080233118A1 (Novartis, published 2008)

Molecular target: T1, human M-CSF (macrophage colony stimulating factor) (human, UniProt P09603 33-190, limits assumed)
T1 sequence: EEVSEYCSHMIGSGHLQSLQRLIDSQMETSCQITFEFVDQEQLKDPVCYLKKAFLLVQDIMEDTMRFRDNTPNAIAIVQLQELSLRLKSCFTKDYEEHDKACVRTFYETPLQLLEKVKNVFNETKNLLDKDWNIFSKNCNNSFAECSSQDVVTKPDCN
Experiment: cell-based or functional assay

EC50 of M-CSF neutralization: 2 ng/mL
B1: M-CSF-specific murine antibody RX1 (antibody, V domains shown)
VH: DVQLQESGPGLVKPSQSLSLTCTVTDYSITSDYAWNWIRQFPGNKLEWMGYISYSGSTSYNPSLKSRISITRDTSKNQFFLQLNSVTTEDTATYYCASFDYAHAMDYWGQGTSVTVSS
VL: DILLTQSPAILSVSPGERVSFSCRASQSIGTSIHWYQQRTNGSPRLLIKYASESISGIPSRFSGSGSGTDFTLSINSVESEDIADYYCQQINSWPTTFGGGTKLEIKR
